Results reported in the supplement of paper PMC10201428.
± gives the standard deviation of the averaged measurements.

tested on: VchCAST RNA-guided transposition machinery (E. coli BL21(DE3) host, lacZ target); experiment: relative integration efficiency (T-RL orientation) vs wild-type transposon end (log2 (normalized fold change)); transposon end mutated: right end (5 bp flank + 75 bp right end); higher = more efficient transposition
Summary of the method: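 Co-transformation of E. coli BL21(DE3) combined a pUC57 mini-transposon donor, holding barcoded pools of 1549 left-end or 1849 right-end variants, with a T7-driven plasmid encoding a CRISPR array, tniQ-cas8-cas7-cas6 and tnsA-tnsB-tnsC. After plating with 0.1 mM IPTG at 37°C for 18 h, input plasmids and genomic integration junctions were PCR-amplified and Illumina-sequenced across two biological output replicates, with four reference barcodes. Relative integration efficiency is the normalised, log-transformed output/input barcode fold change.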

Sequence | relative integration efficiency (log2)
ACATTTGTTGATACAACCATATTATGATAATTACACCCATATTTTGATAATTATCACACCCATATTTTGATATTGCCTCTGATCATAGTCAGACCAACATTGCTACGACCCGTATTCGCACCGACAC | -0.5763 ± 0.0022
ACATTTCTTGATACAACCATAAAATGATAATTACACCCATAAATTGATCATTATCACACCCAATTTAACTATAACGCTCTGATCATAGTCAGACCAACATTGCTACGACCCGTATTCGCACCGACAC | -1.92 ± 0.52
ACATTAGTCGATACAACCATAAAATGATAATTACACCCATAAATTGATCATTATCACACCCAATTTAACTATAACGCTCTGATCATAGTCAGACCAACATTGCTACGACCCGTATTCGCACCGACAC | -7.26 ± 0.69
ACATTTGTTGATACAACCATTAAATGATAATTCCACCCTTAAATTGATAATTATCACACCCAATTTAACTATAACGCTCTGATCATAGTCAGACCAACATTGCTACGACCCGTATTCGCACCGACAC | -2.08 ± 0.36
ACATTTGTTGATACAACCATAAAATGATAATTACACCCATAAATTGATAATTATCACACCCATAAATTGATATTGAAGATGATCATAGTCAGACCAACATTGCTACGACCCGTATTCGCACCGACAC | 0.3393 ± 0.002
ACATTTGTTGATACAACCATCAAATGGTAATTACACCCATAAATTGATAATTATCACACCCAATTTAACTATAACGCTCTGATCATAGTCAGACCAACATTGCTACGACCCGTATTCGCACCGACAC | -0.349 ± 0.42
ACATTGGTTGATACAACCATAAAATGATAATTACACCCATAAATTCATCATTATCACACCCAATTTAACTATAACGCTCTGATCATAGTCAGACCAACATTGCTACGACCCGTATTCGCACCGACAC | -7.43 ± 0.34
ACATTTGTTGATACAACCATAAAATGATAATTACACCCATCAATTGATAATTATCACACCCCATTTAACTATAACGCTCTGATCATAGTCAGACCAACATTGCTACGACCCGTATTCGCACCGACAC | -1.68 ± 0.23
ACATTTGTTGATACAACCCTAAAATGATAATTACACCCATAAATTGATCATTATCACCCCCAATTTAACTATAACGCTCTGATCATAGTCAGACCAACATTGCTACGACCCGTATTCGCACCGACAC | -2.81 ± 0.49
ACATTTGTTGATACAACCATAAAATCATAATTACACCCATCAATTGATAATTATCACACCCCATTTAACTATAACGCTCTGATCATAGTCAGACCAACATTGCTACGACCCGTATTCGCACCGACAC | -4.31 ± 0.11
ACATTTGTTGATACAACCATAAAATCATCATTACCCCCATCAATTGATAATTATCCCACCCCATTTAACTATAACGCTCTGATCATAGTCAGACCAACATTGCTACGACCCGTATTCGCACCGACAC | -5.09 ± 0.14
ACATTTGTTGATACAACCATAAAATGATAATTCACACCATAAATTGATAATTATCACACCCATAAATTGATATTGCCTCTGATCATAGTCAGACCAACATTGCTACGACCCGTATTCGCACCGACAC | -0.218 ± 0.014
ACATTTGTTGATACAACCATAAAATGATAATTACAACCATAAAGTGATATTTATCACACCCATAAATTGATAATTACTCTGATCATAGTCAGACCAACATTGCTACGACCCGTATTCGCACCGACAC | 0.00575 ± 0.15
ACATTTCTTCATACAACCATAAAATGATAATTACACCCATAAATTCATCATTATCACACCCAATTTAACTATAACGCTCTGATCATAGTCAGACCAACATTGCTACGACCCGTATTCGCACCGACAC | -4.8 ± 0.27
ACATTTGTTGATACAACCATAAAGTGATATTTACAACCATATATTGATATCTCTCACAACCATAAAGTGATATTTACTCTGATCATAGTCAGACCAACATTGCTACGACCCGTATTCGCACCGACAC | -0.357 ± 0.21
ACATTTGTTGATACAACCTTAAAATGATAATTACACCCTTAAATTGATAATTATCACACCCTTAAATTGATATTGCCTCTGATCATAGTCAGACCAACATTGCTACGACCCGTATTCGCACCGACAC | -1.34 ± 0.22

Sequence | relative integration efficiency (log2)
ACATTTGTTGATACAACCATAAAATGATAATTACACCCATAAATTGATAATTATCACAAAACTAAATTGATATTGCCTCTGATCATAGTCAGACCAACATTGCTACGACCCGTATTCGCACCGACAC | -0.531 ± 0.15
ACATTTGTTGATACAACCATAAAATGATAATTACACCCATAAATTTATTATTATCACACCCAATTTAACTATAACGCTCTGATCATAGTCAGACCAACATTGCTACGACCCGTATTCGCACCGACAC | -2.3 ± 0.59
ACATTTGTCGATACAACCATAAAATGATAATTACACCCATAAATGGATAATTATCACCCCCAATTTAACTATAACGCTCTGATCATAGTCAGACCAACATTGCTACGACCCGTATTCGCACCGACAC | -1.38 ± 0.18
ACATTTGTTGATACAACCATAAAATGATAATTACACCCATAAATTGATAATTATCACACCCATAAATTGATATTGCCTCTGATCATAGCGTACTAGTTAACTAGTTCGAGTCAGACCGCACCGACAC | -0.142 ± 0.091
ACATTTGTTGATACAACCATAAAATGATAATTACACCCATAAATTGATAATATAGACACCCATAAATTGATATTGCCTCTGATCATAGTCAGACCAACATTGCTACGACCCGTATTCGCACCGACAC | -0.321 ± 0.15
ACATTTGTTGATACAACCATAAAATGATAATTACACCCATAAATTGATAATTATCACACCCATAAATTGATACTCTGATCATAGTCAGACCAACATTGCTACGACCCGTATTCGCACCGACACTGAC | 0.0156 ± 0.031
ACATTTGTTGATACAACCATAAAGTGATATTTACAACCATAAAATGATAATTATCACAACCATAAAGTGATATTTACTCTGATCATAGTCAGACCAACATTGCTACGACCCGTATTCGCACCGACAC | 0.0289 ± 0.14
ACATTTGTTGATACAACCATAAAATTATTATTACACCCATTAATTGATAATTATCACACCCAATTTAACTATAACGCTCTGATCATAGTCAGACCAACATTGCTACGACCCGTATTCGCACCGACAC | -2.35 ± 0.18
ACATTTGTTGATACAACCATCCAATGATAATTACACCCATAAATTGATAATTATCACACCCATAAATTGATATTGCCTCTGATCATAGTCAGACCAACATTGCTACGACCCGTATTCGCACCGACAC | -1.36 ± 0.083
ACATTTGTTGATACAACCATAAAATGATAATTACTCTGATCATAGTCAGACCAACATTGCTACGACCCGTATTCACCCATAAATTGATAATTATCACACCCATAAATTGATATTGCCGCACCGACAC | -3.12 ± 0.47
ACATTTGTTGATACAACCATAAAATGATAATTACACCCATAAATTGATAATTATCACACCCATAAATTGATATTGCCTCTTTATGCAGGACGACGTACGCGTTCCATATAAACCTGTGCACCGACAC | 0.021 ± 0.25
ACATTTGTTGATACAACACTAAAATGATAATTACACCCATAAATTGATAATTATCACACCCATAAATTGATATTGCCTCTGATCATAGTCAGACCAACATTGCTACGACCCGTATTCGCACCGACAC | -1.85 ± 0.15
ACATTTCTCGATACAACCATAAAATGATAATTACACCCATAAATTCATAATTATCACACCCAATTTAACTATAACGCTCTGATCATAGTCAGACCAACATTGCTACGACCCGTATTCGCACCGACAC | -1.95 ± 0.18
ACATTTGTTCATCCAACCATAAAATGATAATTACACCCATAAATTCATCATTATCACACCCAATTTAACTATAACGCTCTGATCATAGTCAGACCAACATTGCTACGACCCGTATTCGCACCGACAC | -2.92 ± 0.45
ACATTTGTTGATACAACCATAAAATGATAATTACACCCATAAATTGATAATTATCAACAACATAAATTGATATTGCCTCTGATCATAGTCAGACCAACATTGCTACGACCCGTATTCGCACCGACAC | -0.911 ± 0.21
ACATTTGTTGATACAACCATAAAATGATAATTACACCCATAAATTTCGCATTATCACACCCATAAATTGATATTGCCTCTGATCATAGTCAGACCAACATTGCTACGACCCGTATTCGCACCGACAC | -1.91 ± 0.14
